Assay results from article PMC12331966.

Legend:
Assay in all cases: EMSA
TIA1 WT = biological target: T1, TIA1 WT (Homo sapiens, UniProt P31483 1-386)
T1 sequence: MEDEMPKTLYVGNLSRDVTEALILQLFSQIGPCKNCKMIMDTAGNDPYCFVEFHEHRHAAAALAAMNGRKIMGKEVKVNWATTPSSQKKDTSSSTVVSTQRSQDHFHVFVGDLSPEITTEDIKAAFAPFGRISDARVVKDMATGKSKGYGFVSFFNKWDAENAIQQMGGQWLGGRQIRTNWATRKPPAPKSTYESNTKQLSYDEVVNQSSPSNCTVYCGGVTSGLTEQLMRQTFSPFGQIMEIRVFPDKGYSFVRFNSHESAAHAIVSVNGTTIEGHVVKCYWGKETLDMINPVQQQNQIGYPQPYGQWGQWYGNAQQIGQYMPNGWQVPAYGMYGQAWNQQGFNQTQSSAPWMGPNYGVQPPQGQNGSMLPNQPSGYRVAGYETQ

PABPC1 K512R = PABPC1 K512R (Homo sapiens, UniProt P11940 1-636, K512R)
PABPC1 K512R, sequence (P11940 whole entry K512R): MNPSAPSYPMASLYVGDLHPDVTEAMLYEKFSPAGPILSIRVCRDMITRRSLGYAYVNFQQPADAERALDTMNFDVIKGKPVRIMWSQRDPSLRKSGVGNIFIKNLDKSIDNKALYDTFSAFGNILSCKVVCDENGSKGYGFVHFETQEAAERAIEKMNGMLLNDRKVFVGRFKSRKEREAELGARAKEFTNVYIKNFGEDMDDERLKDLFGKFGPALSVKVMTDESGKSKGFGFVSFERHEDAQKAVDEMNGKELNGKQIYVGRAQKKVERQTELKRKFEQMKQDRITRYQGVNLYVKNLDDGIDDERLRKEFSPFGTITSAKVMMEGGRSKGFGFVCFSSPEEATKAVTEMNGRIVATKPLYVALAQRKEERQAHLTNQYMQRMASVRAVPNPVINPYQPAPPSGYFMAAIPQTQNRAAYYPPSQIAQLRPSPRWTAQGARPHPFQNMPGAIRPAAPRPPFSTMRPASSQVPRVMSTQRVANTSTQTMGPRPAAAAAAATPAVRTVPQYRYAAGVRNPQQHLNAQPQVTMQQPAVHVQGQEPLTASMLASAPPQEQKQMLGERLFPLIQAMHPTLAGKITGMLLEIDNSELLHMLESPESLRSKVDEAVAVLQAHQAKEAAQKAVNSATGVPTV

PABPC1 WT = PABPC1 WT (Homo sapiens, UniProt P11940 1-636)
PABPC1 WT, sequence (P11940 whole entry): as the sequence (P11940 whole entry K512R) above, with R512K counted along it

Does CUUUUUUUUUUUUUUUUUUUUUUUUG (ssRNA) [Bio-polyU] bind (TIA1 WT)?
Result: binds

B1: Bio-A90 (ssRNA)
RNA: GCCUUUCAUCUCUAACUGCGAAAAAAAAAAAAAAAAAAAAAAAAAAAAAAAAAAAAAAAAAAAAAAAAAAAAAAAAAAAAAAAAAAAAAAAAAAAAAAAAAAAAAAAAAA
Does B1 bind (PABPC1 K512R)?
Result: binds

Does B1 bind (PABPC1 WT)?
Result: binds
